Test results taken from patent US20150191520A1 (MEDIZINISCHE UNIVERSIT T WIEN, published 2015).
One block for each binder: values may come before it.

Tests used:
[1] = biological target: T1, immunoglobulin-like transcript 4 (ILT4) (human, UniProt Q8N423 22-597); assay: flow cytometry: rh-C4d (C4Ad per the FIG. 3a legend) titrated on Bw-ILT4 cells, detected with C4d-mMAb, Langmuir 1:1 isotherm; stated to be a minimum estimate (non-equilibrium assay)
T1 construct: Expressed on Bw5147 cells from a 2 kb retroviral insert; In the functional assays it is the native receptor on human monocytes; also called CD85d; LILRB2
Method: FIG. 3. Classical receptor-ligand interaction between C4d and ILT4. a Bw-ILT4 cells or control Bw cells (Bw-mock) were incubated with different concentrations of C4Ad and cell-bound C4Ad was measured by flow cytometry using C4d-mMAb for detection. Data obtained for C4Ad are representative for those using C4Bd, data not shown. Mean and standard deviation of triplicate measurements are shown. b Dissociation constant (Kd) of the C4d-ILT4 interaction assessed via Langmuir binding isotherm equation for single class 1:1 binding equilibrium based on data shown in FIG. 3a.
(§1) Flow cytometric analyses were performed via a FACSCalibur flow cytometrer (BD Biosciences, Franklin Lakes, N.J.) using 60,000 cells per sample resuspended in FACS-buffer. In experiments employing monocytes or moDCs, human IgG (Beriglobin P; CSL Behring, Vienna, Austria) was used at 20 mg/mL to block Fcγ receptors. For fluorescence-activated cell sorting (FACS), Bw cells expressing a retroviral cDNA expression library generated from moDC¹⁶ were incubated with biotinylated rh-C4Ad or rh-C4Bd (20m/mL each) in FACS-buffer for 30 minutes on ice followed by two washing steps and subsequent detection of bound biotinylated C4d molecules through incubation with SA-PE. FACS was performed using a FACSDiva (BD Biosciences).

[2] = biological target: T1, immunoglobulin-like transcript 4 (ILT4); assay: flow cytometry, biotinylated C4d (20 µg/mL) on Bw cells expressing ILT4
Excerpt: FIG. 1. Identification of ILT4 as cellular receptor for C4d. a Flow cytometric analyses showing the interaction of biotinylated recombinant human C4d (20m/mL) of both isoforms, rh-C4Ad and rh-C4Bd, with monocytes and monocyte-derived dendritic cells (moDC; grey histograms). Open histograms represent the reactivity of the secondary reagent with these cells. SA-PE: streptavidin-R-PE. b C4d-reactive cells were enriched from a Bw cell pool expressing a cDNA library derived from human moDC by multiple rounds of FACS. Data obtained for rh-C4Bd are representative for those obtained using rh-C4Ad (data not shown). Sorting gates are shown. c Single cell clones derived from the C4d reactive Bw cell pool were probed with rh-C4Ad- and rh-C4Bd. MFI: mean fluorescence intensity. d PCR-amplification of the retroviral inserts of the C4d-b(C4Bd) binding clones 1.5 and 3.7. e Bw cells expressing a 2 kb retroviral insert encoding immunoglobulin-like transcript 4 (ILT4) were probed with biotinylated rh-C4Ad, rh-C4Bd and C4d isolated from human plasma (ih-C4d) each at 20m/mL or ILT4-specific mMAb (grey histograms). Open histograms represent reactivity of C4d molecules and ILT4 mMAb with control Bw-cells. f Monocytes and moDC were analyzed for ILT4 expression (grey histograms, ILT4-mMAb; open histograms, isotype control). […]

[3] = biological target: T2, isolated human C3b (ih-C3b) (human, UniProt P01024 749-1663; P01024 23-667, limits assumed, biotin on amino groups (Biotin-X-NHS) in flow cytometry; unlabelled in ELISA); assay: flow cytometry, CSP on transduced Bw cells (FIG. 2a)
T2 construct: Multi-chain fragment
Method: (§2) FIG. 2. Interaction of ILT4 and ILT5v2 with C4d, C4b, C3d, C3b and iC3b. a Flow cytometric analysis of Bw cells transduced to express ILT2, ILT4 and ILT5-antigenic variants 1 and 2 (ILT5v1 and ILT5v2). Expression of ILT-receptors was verified with specific monoclonal antibodies (left panels, grey histograms; open histograms represent reactivity of ILT MAbs with mock treated Bw cells). Interaction of Bw cells expressing ILT-molecules and mock-treated Bw cells with the indicated CSPs (20 μg/mL each) and with MHC-class I tetramers (further panels, grey histograms). b Interaction of plate-bound CSPs with recombinant human ILT4-Fc fusion protein (rh-ILT4-Fc) or control Fc-fusion protein (rh-ILT3-Fc) was analyzed in an ELISA. c Bw cells transduced to express PIR-B, the murine ortholog of ILT4, were probed with a PIR-B-specific monoclonal antibody or with human CSPs and human MHC-class I tetramers.
(§3) Flow cytometric analyses were performed via a FACSCalibur flow cytometrer (BD Biosciences, Franklin Lakes, N.J.) using 60,000 cells per sample resuspended in FACS-buffer. In experiments employing monocytes or moDCs, human IgG (Beriglobin P; CSL Behring, Vienna, Austria) was used at 20 mg/mL to block Fcγ receptors. […]

[4] = biological target: T3, isolated human iC3b (ih-iC3b) (human, UniProt P01024 23-667; P01024 749-1303; P01024 1321-1663, limits assumed, biotin on amino groups (Biotin-X-NHS) in flow cytometry; unlabelled in ELISA); assay: as above
T3 construct: Multi-chain fragment
Method: as §2, §3

[5] = biological target: T2, isolated human C3b (ih-C3b); assay: flow cytometry, CSP on transduced Bw cells (FIG. 5a)
Method: (§4) FIG. 5. Flow cytometric analysis of the interaction of C4d, C3d, C4b, C3b and iC3b and human MHC class I tetramers with Bw cells transduced to express a ILT1 transcript variants 1 and 2 (ILT1v1 and ILT1v2), ILT3 and ILT7, b previously established complement receptors CD21, CD46 and CRIg, and c PIR-A transcript variant 1 (PIR-Avl), murine ortholog of ILT1. a-c left panels: Expression of transduced receptors was assessed using specific antibodies (grey histograms); open histograms represent reactivity of these antibodies with control Bw cells. d Plate-bound CSP were probed with a recombinant protein representing the human CD35 extracellular domain (rh-sCD35) via ELISA. BSA was used as a plate-bound ligand control; white control bars represent no rh-sCD35 added to the assay.
as §1, with “In experiments employing monocytes or moDCs, human IgG (Beriglobin P; CSL Behring, Vienna, Austria) was used at 20 mg/mL to block Fcγ receptors.” left out, “FACS was performed using a FACSDiva (BD Biosciences).” left out

[6] = biological target: T3, isolated human iC3b (ih-iC3b); assay: as above
Method: as §4
as §1, with “In experiments employing monocytes or moDCs, human IgG (Beriglobin P; CSL Behring, Vienna, Austria) was used at 20 mg/mL to block Fcγ receptors.” left out, “FACS was performed using a FACSDiva (BD Biosciences).” left out

T1 sequence (Q8N423 other isoform, or with tags, fused parts or gaps limits assumed): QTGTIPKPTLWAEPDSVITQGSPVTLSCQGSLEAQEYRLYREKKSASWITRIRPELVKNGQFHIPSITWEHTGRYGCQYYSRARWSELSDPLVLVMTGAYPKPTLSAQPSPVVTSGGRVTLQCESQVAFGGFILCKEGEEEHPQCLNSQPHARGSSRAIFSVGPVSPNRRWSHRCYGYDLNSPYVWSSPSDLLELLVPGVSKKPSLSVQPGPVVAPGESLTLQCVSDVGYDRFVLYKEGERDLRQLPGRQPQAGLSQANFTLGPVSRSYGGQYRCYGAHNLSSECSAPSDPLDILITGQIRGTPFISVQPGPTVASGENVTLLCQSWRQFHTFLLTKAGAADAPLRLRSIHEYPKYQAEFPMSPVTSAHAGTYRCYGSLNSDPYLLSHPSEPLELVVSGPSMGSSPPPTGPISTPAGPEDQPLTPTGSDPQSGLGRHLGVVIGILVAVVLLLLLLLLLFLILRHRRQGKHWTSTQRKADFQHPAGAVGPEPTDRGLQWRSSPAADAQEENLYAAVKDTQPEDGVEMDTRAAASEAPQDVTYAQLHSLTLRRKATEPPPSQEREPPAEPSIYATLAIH

- Kd [1]: 630 nM
B1: recombinant human C4d, isoform C4d-A (rh-C4Ad) (ligand)
chain: TLEIPGNSDPNMIPDGDFNSYVRVTASDPLDTLGSEGALSPGGVASLLRLPRGCGEQTMIYLAPTLAASRYLDKTEQWSTLPPETKDHAVDLIQKGYMRIQQFRKADGSYAAWLSRDSSTWLTAFVLKVLSLAQEQVGGSPEKLQETSNWLLSQQQADGSFQDPCPVLDRSMQGGLVGNDETVALTAFVTIALHHGLAVFQDEGAEPLKQRVEASISKANSFLGEKASAGLLGAHAAAITAYALTLTKAPVDLLGVAHNNLMAMAQETGDNLYWGSVTGSQSNAVSPTPAPRNPSDPMPQAPALWIETTAYALLHLLLHEGKAEMADQASAWLTRQGSFQGGFRSTQDTVIALDALSAYWIASHTTEERGLNVTLSSTGR
modifications: biotin on amino groups (Biotin-X-NHS) or, when indicated, on the thioester cysteine C1010 (prepro numbering) via Iodoacetyl-LC-biotin; unlabelled in FIG. 3a and when used as competitor
notes: also called complement split product C4Ad; rh-C4d

- binding result [2]: binds
B2: recombinant human C4d, isoform C4d-B (rh-C4Bd) (ligand)
chain: TLEIPGNSDPNMIPDGDFNSYVRVTASDPLDTLGSEGALSPGGVASLLRLPRGCGEQTMIYLAPTLAASRYLDKTEQWSTLPPETKDHAVDLIQKGYMRIQQFRKADGSYAAWLSRGSSTWLTAFVLKVLSLAQEQVGGSPEKLQETSNWLLSQQQADGSFQDLSPVIHRSMQGGLVGNDETVALTAFVTIALHHGLAVFQDEGAEPLKQRVEASISKASSFLGEKASAGLLGAHAAAITAYALTLTKAPADLRGVAHNNLMAMAQETGDNLYWGSVTGSQSNAVSPTPAPRNPSDPMPQAPALWIETTAYALLHLLLHEGKAEMADQAAAWLTRQGSFQGGFRSTQDTVIALDALSAYWIASHTTEERGLNVTLSSTGR
modifications: biotin on amino groups (Biotin-X-NHS) or, when indicated, on the thioester cysteine C1010 (prepro numbering) via Iodoacetyl-LC-biotin; unlabelled when used as competitor
notes: also called complement split product C4Bd; rh-C4d

- binding result [3]: no binding (tested: 20 µg/mL)
- binding result [4]: no binding (tested: 20 µg/mL)
B3: ILT2 (receptor, human, UniProt Q8NHL6 24-650, looked up)
chain: GHLPKPTLWAEPGSVITQGSPVTLRCQGGQETQEYRLYREKKTALWITRIPQELVKKGQFPIPSITWEHAGRYRCYYGSDTAGRSESSDPLELVVTGAYIKPTLSAQPSPVVNSGGNVILQCDSQVAFDGFSLCKEGEDEHPQCLNSQPHARGSSRAIFSVGPVSPSRRWWYRCYAYDSNSPYEWSLPSDLLELLVLGVSKKPSLSVQPGPIVAPEETLTLQCGSDAGYNRFVLYKDGERDFLQLAGAQPQAGLSQANFTLGPVSRSYGGQYRCYGAHNLSSEWSAPSDPLDILIAGQFYDRVSLSVQPGPTVASGENVTLLCQSQGWMQTFLLTKEGAADDPWRLRSTYQSQKYQAEFPMGPVTSAHAGTYRCYGSQSSKPYLLTHPSDPLELVVSGPSGGPSSPTTGPTSTSGPEDQPLTPTGSDPQSGLGRHLGVVIGILVAVILLLLLLLLLFLILRHRRQGKHWTSTQRKADFQHPAGAVGPEPTDRGLQWRSSPAADAQEENLYAAVKHTQPEDGVEMDTRSPHDEDPQAVTYAEVKHSRPRREMASPPSPLSGEFLDTKDRQAEEDRQMDTEAAASEAPQDVTYAQLHSLTLRREATEPPPSQEGPSPAVPSIYATLAIH
notes: whole, on cells

- binding result [5]: no binding
- binding result [6]: no binding
B4: ILT7 (receptor, human, UniProt P59901 24-499, looked up)
chain: ENLLKPILWAEPGPVITWHNPVTIWCQGTLEAQGYRLDKEGNSMSRHILKTLESENKVKLSIPSMMWEHAGRYHCYYQSPAGWSEPSDPLELVVTAYSRPTLSALPSPVVTSGVNVTLRCASRLGLGRFTLIEEGDHRLSWTLNSHQHNHGKFQALFPMGPLTFSNRGTFRCYGYENNTPYVWSEPSDPLQLLVSGVSRKPSLLTLQGPVVTPGENLTLQCGSDVGYIRYTLYKEGADGLPQRPGRQPQAGLSQANFTLSPVSRSYGGQYRCYGAHNVSSEWSAPSDPLDILIAGQISDRPSLSVQPGPTVTSGEKVTLLCQSWDPMFTFLLTKEGAAHPPLRLRSMYGAHKYQAEFPMSPVTSAHAGTYRCYGSRSSNPYLLSHPSEPLELVVSGATETLNPAQKKSDSKTAPHLQDYTVENLIRMGVAGLVLLFLGILLFEAQHSQRSPPRCSQEANSRKDNAPFRVVEPWEQI
notes: whole, on cells
